The supplement of paper PMC9170038

Key:
[1] = tested on: MS2 coat protein; test: apparent KD of MS2 coat protein; designed switch direction (-1 OFF switch, 1 ON switch): -1; higher = weaker reporter binding; details: Eterna round: R98
Protocol: (§1)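 RNA-MaP: designed FMN/MS2 RNA switches (84 nt design region) are transcribed on-chip within common flanks and titrated with SNAP-549-labelled MS2 coat protein (about 1-3000 nM) in 100 mM Tris pH 7.5, 80 mM KCl, 4 mM MgCl2, without or with 200 uM FMN. Median apparent KD per design; activation ratio = KD,OFF / KD,ON.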

[2] = tested on: MS2 coat protein; test: apparent KD of MS2 coat protein; higher = weaker reporter binding; details: Eterna round: R101
Protocol: as §1

[3] = tested on: MS2 coat protein; test: apparent KD of MS2 coat protein; designed switch direction (-1 OFF switch, 1 ON switch): 1; higher = weaker reporter binding; details: Eterna round: R98
Protocol: as §1

Row | Sequence | apparent KD of MS2 coat protein ([1]; input ligand: FMN 200 uM) [nM] | apparent KD of MS2 coat protein ([1]; input ligand: none) [nM] | apparent KD of MS2 coat protein ([2]; input ligand: FMN 200 uM) [nM] | apparent KD of MS2 coat protein ([2]; input ligand: none) [nM] | other results
1 | UAUAUAUAGGCAGGAUAUACAUGAAUAUAUAAUAUAAUAUAUAAUAUAACAUGAGGAUCACCCAUGUAGAAGGGCCAUAAUAUA [LRO031_Exclusion NG 2] | 109 | 48.6 |  |  | 
2 | CGAUAUAUGAAGGGCAAACGCCCACAUGAGGAUCACCCAUGUAGAAGGCGAUCCGCAACGCGGAUCGAGGAUAUAUAGUAUACA [#my 15th design] (puzzle (switch architecture): Inverted Exclusion NG 3) |  |  | 10.6 | 11.2 | 
3 | GCAGCUAAUGCAGGAUAUCAGCACGUGUAGUGCUGAGAAGGGCACAUGAGGAUCACCCAUGUGAUCAAUUAAUGUUAAUGCUGC [ExNG1 1 #C-Saturation] (puzzle (switch architecture): Exclusion NG 1) |  |  | 15.2 | 6.82 | 
4 | AUGACAGGCAGAGCGCAACGGCGUACAUGAGGAUCACCCAUGUAGGAUAUACUACACAAAGUGUAGUAGAAGGACAUGCGACGC [Ex NG2 #87] | 34.4 | 23.2 |  |  | 
5 | AUCAGCUCGUCAGGAUAUACGUCACUGCUUCGGCAGUGUGGUAAGAUCACAUGAGGAUCACCCAUGUAGAAGGGACGAGCUGAU [#EX_NG2_M81 #GC_VS_GU_SWITCHING] (puzzle (switch architecture): Exclusion NG 2) |  |  | 258 | 13.4 | 
6 | AAAAAUUCUUAAGGAUAUCAGUGGCAAAGCCACUGAGAAGGUGAGGAUCACCCACCUACGUGACGCUGGAAACAGCGUCACGAA [#SharedSequence ExNG1 - 29] (puzzle (switch architecture): Exclusion NG 1) |  |  | 18.8 | 16.6 | 
7 | UGUUGUUACGCAGGAUAUUGCCAACAGGCAGUAGGAUAUCCGAAAGGAGAAGGAUCGCCAACAGGCGAGAAGGGCGGGUUAACA [pwkr exNG2 2xF7 2FMN.10.2] | 194 | 706 |  |  | 
8 | AGAAACUACGAGAAGGACAUGUGGUCCUUCAAAACCAUGAGGAUCACCCAUGUAGGAUAUCGUAGUUUCAGGAUCGUGAGAUCA [salish99_ISLExNG1_023 #HINGE] (puzzle (switch architecture): Inverted Small Loop Exclusion NG 1) |  |  | 12.1 | 268 | 
9 | UAUAUAUAGGCAGGAUAUACAUGUAUAUAUAAUUUUUUAUAUAUUAUUACAUGAGGAUCACCCAUGUAGAAGGGCCUUAUUAUA [LRO039_Exclusion NG 2] | 62.8 | 46.9 |  |  | 
10 | CCAUAAAAGAUCCAUUUUUACAACAUGAGGAUCACCCAUGUGCAGGAUAUCGUGAAAGUUAAAUACGAGAAGGGCAAGAACUGC [JR_ExcNG3_Sub050] | 104 | 105 |  |  | 
11 | AAUAAUUCUUAAGGAUAUGACUCCGAAACGGAGUCAGAAGGUGAGGAUCACCCACCUAGCUCAGCGUCGAAAGACGCUGAGCAA [#SharedSequence ExNG1 - 31] (puzzle (switch architecture): Exclusion NG 1) |  |  | 12.7 | 10.5 | 
12 | AUAUAUAUUUAGAAGGACAUGAGGAUCACCCAUGUCGCCGGGCCCGGGAAACCGGGCCCGGCCAUGUAGGAUAUAGAUAUAUAU [#This is a good prank 13] (puzzle (switch architecture): Inverted Exclusion NG 2) |  |  | 9.05 | 6.41 | 
13 | CCUUUAAAGAUCCAAAAUUACAACAUGAGGAUCACCCAUGUGCAGGAUAUCGUGCCAGUGAUGUACGAGAAGGGCAGACUCUGC [salish99_ExNG3_r2_015] | 95.2 | 105 |  |  | 
14 | AUGACAGGCAGAGCGCAACGGCGUACAUGAGGAUCACCCAUGUAGGAUAUACUACACAAAGUGUAGUAGAAGGACAUGCGACGG [Ex NG2 #89] | 69 | 35.8 |  |  | 
15 | AGGACAGGCAGAGCGCAACGGCGUACAUGAGGAUCACCCAUGUAGGAUAUACUACACAAAGUGUAGUAGAAGGACAUGCGACGC [Ex NG2 #88] | 45.6 | 16.1 |  |  | 
16 | CGAAGUCCGUAGAAGGGUGACAUGAGGAUCACCCAUGUGCGAGCCGAUGGAGUCAGCGGCUCGCCACAGGAUAUACGGAGCACG [Isdiesrama] (puzzle (switch architecture): Inverted Same State NG 2) |  |  | 22.3 | 180 | 
17 | AUGGAUAUCACAGGAUAUGAUAUGGAUACCAUAUCAGAAGGGUGACCCAUCCUAUGUAAAUACAUGAGGAUCACCCAUGUGUCC [Sara'sguidence+#HughScoreProbStacks#11] (puzzle (switch architecture): Same State NG 1) |  |  | 340 | 640 | 
18 | GGGUACAUCGGAGGAUAUCAUGUAUAUACAUGAGGAUCACCCAUGUCGAUGGAGACAUCGGAGAUUGAGAAGGCCGAUGUACCG (puzzle (switch architecture): Same State NG 2) |  |  | 11.8 | 382 | 
19 | UAUUGCGCCGUAAAAUAACACAUGAGGAUCACCCAUGUGACACAGGAUAUAACCAGAUCAGAAAGUUAGAAGGGUGAAAACGGC [Edraed Mod 3 - Jieux - Same State NG3] |  |  |  |  | apparent KD of MS2 coat protein ([3]; input ligand: FMN 200 uM): 20.4 nM; apparent KD of MS2 coat protein ([3]; input ligand: none): 30.8 nM
20 | UAUUAUAUAUAGAAGGACAUGAGGAUCACCCAUGUCGCCGGGCCCGGGAAACCGGGCCCGGCCAUGUAGGAUAUAUAUAUGGUA [#This is a good prank 8] (puzzle (switch architecture): Inverted Exclusion NG 2) |  |  | 6.2 | 6.38 | 
21 | CACACAUGGUGAGGAUAUGCAGAGGAUCACCCUGUAGAAGGCAUCAGGGUAGAAGGUGCAAGGAUCACCUGUAAGGAUAUAUCC [pwkr2 ssNG1 DX.27] |  |  |  |  | apparent KD of MS2 coat protein ([3]; input ligand: FMN 200 uM): 1030 nM; apparent KD of MS2 coat protein ([3]; input ligand: none): 1430 nM
22 | AAAACAUACCGAGGAUAUUCAUUUUAUAAAUAAACAUGAGGAUCACCCAUGUGGCAAAAGCCUAGGGAGAAGGCGGAAUGCUAA [salish99_SSNG2_r2_121] |  |  |  |  | apparent KD of MS2 coat protein ([3]; input ligand: FMN 200 uM): 29.9 nM; apparent KD of MS2 coat protein ([3]; input ligand: none): 39.6 nM
23 | GGAGACCUUACAGGAUAUGCUGGACUUUGUCCAGCAGAAGGGUGAAAACAUGAGGAUCACCCAUGUAUGGUCUCCAAAUUUAAU [jl-ssng1-3.02 #GU_VS_GC_SWITCHING] (puzzle (switch architecture): Same State NG 1) |  |  | 21.2 | 19.1 | 
24 | GUAGCAUACCGAGGAUAUUCAUCCGGAUUACGGACAUGAGGAUCACCCAUGUGGCGAAAGCCUUGGGAGAAGGCGGAAUGCUAC [Xeinanis 75 33] |  |  |  |  | apparent KD of MS2 coat protein ([3]; input ligand: FMN 200 uM): 34.4 nM; apparent KD of MS2 coat protein ([3]; input ligand: none): 369 nM
25 | CGCUAUAACAUGAGGAUCACCCAUGUAUACAUGGAAUUGACGUAGGAUAUGCAGUUGAUUAUAGUGCAGAAGGACGGUAUAGCG [JR #DistanceFar #Hairpin #Noisy #NP SSNG3 Sub069] (puzzle (switch architecture): Same State NG 3) |  |  | 37.3 | 101 | 
